{
  "source": "paper PMC3086075",
  "target": "recombinant class C acid phosphatase from Pasteurella multocida (Pasteurella multocida)",
  "assay": "AUC",
  "data": [
    {"substance": "recombinant class C acid phosphatase from Pasteurella multocida (enzyme)", "values": [
      {"measurement": "stoichiometry N", "value": 2}
    ]}
  ]
}
